Data as given in paper PMC8253768, “Structural plasticity of mumps virus nucleocapsids with cryo-EM structures” (Communications Biology, 2021).
Where “and” joins values, the source holds several entries; their conditions need not be identical. Equal entries are not always repeated.

B1: Mumps virus (MuV) nucleoprotein, full length (1–549), freshly purified (natural protein)
chain: MSSVLKAFERFTIEQELQDRGEEGSIPPETLKSAVKVFVINTPNPTTRYQMLNFCLRIICSQNARASHRVGALITLFSLPSAGMQNHIRLADRSPEAQIERCEIDGFEPGTYRLIPNARANLTANEIAAYALLADDLPPTINNGTPYVHADVEGQPCDEIEQFLDRCYSVLIQAWVMVCKCMTAYDQPAGSADRRFAKYQQQGRLEARYMLQPEAQRLIQTAIRKSLVVRQYLTFELQLARRQGLLSNRYYAMVGDIGKYIENSGLTAFFLTLKYALGTKWSPLSLAAFTGELTKLRSLMMLYRGLGEQARYLALLEAPQIMDFAPGGYPLIFSYAMGVGTVLDVQMRNYTYARPFLNGYYFQIGVETARRQQGTVDNRVADDLGLTPEQRTEVTQLVDRLARGRGAGIPGGPVNPFVPPVQQQQPAAVYEDIPALEESDDDGDEDGGAGFQNGVQLPAVRQGGQTDFRAQPLQDPIQAQLFMPLYPQVSNMPNNQNHQINRIGGLEHQDLLRYNENGDSQQDARGEHVNTFPNNPNQNAQLQVGDWDE
notes: Mumps virus nucleoprotein (N), full-length gene 1–549, synthesized by GenScript, cloned into pET28b; Purified with enwrapped endogenous E. coli RNA; Only residues 1–373 are resolved in the maps; also called NWT; MuV nucleoproteins; source: E. coli, purified (nickel-nitrilotriacetic acid resin, Superose 6 gel filtration), freshly made

Tests used:
[1] = target: Aged MuV nucleoprotein (NWT kept at 4 °C for 4 weeks, digested by residual impurities) (mumps virus) (UniProt Q77IS8); assay: cryo-EM structure; filaments of NWT after 4 weeks of digestion at 4 °C; helical reconstruction of three classes (NC_(helix-dense), NC_(helix-hyper), N_(ring-stacked) with C13 symmetry); with enwrapped RNA
[2] = target: the molecule itself; assay: cryo-EM structure; single particle analysis of freshly purified NWT rings with enwrapped E. coli RNA; ~1 mg/mL; 20 mM Tris-HCl pH 7.4, 150 mM NaCl; micrographs at 0°, 20° and 40° tilt; 2D classification and refinement with C13 or C14 symmetry

| Molecule | stoichiometry N [1] [protomers] | stoichiometry N [2] |
| --- | --- | --- |
| Aged MuV nucleoprotein (NWT kept at 4 °C for 4 weeks, digested by residual impurities) (from UniProt Q77IS8 1-549) (domain or fragment) | 13 |  |
| B1 |  | 13 protomers and 14 protomers |
